Consider four molecules from paper PMC3620054, “Lsb1 Is a Negative Regulator of Las17 Dependent Actin Polymerization Involved in Endocytosis” (PLoS ONE, 2013).

For orientation: Kd means the free concentration of one partner at which half of the binding sites on the other are occupied at equilibrium, for simple one-to-one binding.

The labels stand for the following.
B1: SH3-Lsb1 (purified, GST cleaved off) (domain or fragment, S. cerevisiae, UniProt P53281 57-109, looked up)
chain: YVEALYDFEAQQDGDLSLKTGDKIQVLEKISPDWYRGKSNNKIGIFPANYVKP
notes: Lsb1, S. cerevisiae, SH3 domain, residues 57-109, from pGEX4T-1; also called SH3 domain of Lsb1; source: E. coli BL21, purified (glutathione Sepharose, thrombin cleavage, size exclusion chromatography)
B2: SH3-Lsb2 (purified, GST cleaved off) (domain or fragment, S. cerevisiae, UniProt Q06449 59-110, looked up)
chain: VEALYQFDPQQDGDLGLKPGDKVQLLEKLSPEWYKGSCNGRTGIFPANYVKP
notes: Lsb2 (Pin3), S. cerevisiae, SH3 domain, residues 59-110, from pGEX4T-1; also called SH3 domain of Lsb2; source: E. coli BL21, purified (glutathione Sepharose, thrombin cleavage, size exclusion chromatography)
B3: Lsb1 (purified, GST cleaved off) (natural protein, S. cerevisiae, UniProt P53281 1-241, looked up)
chain: MSASLVNRSLKNIRNELEFLKESNVISGDIFELINSKLPEKWDGNQRSPQNADTEEYVEALYDFEAQQDGDLSLKTGDKIQVLEKISPDWYRGKSNNKIGIFPANYVKPAFTRSASPKSAEAASSSTVSRPSVPPPSYEPAASQYPSQQVSAPYAPPAGYMQAPPPQQQQAPLPYPPPFTNYYQQPQQQYAPPSQQAPVEAQPQQSSGASSAFKSFGSKLGNAAIFGAGSAIGSDIVNSIF
notes: Lsb1, S. cerevisiae, full-length, from pGEX4T-1; also called full-length Lsb1; source: E. coli BL21, purified (glutathione Sepharose, thrombin cleavage, size exclusion chromatography)
B4: Lsb2 (purified, GST cleaved off) (natural protein, S. cerevisiae, UniProt Q06449 1-215, looked up)
chain: MSASLINRSLTNIRTELDFLKGSNVISNDVYDQINKSLPAKWDPANAPRNASPASLEYVEALYQFDPQQDGDLGLKPGDKVQLLEKLSPEWYKGSCNGRTGIFPANYVKPAFSGSNGPSNLPPPPQYKAQELQQIPTQNSAASSYQQQPFPPPSTNYYQQPQQQPQQAPPPQQQQQQQQHQSSHSHLKSFGSKLGNAAIFGAGASIGSDIVNNIF
notes: Lsb2 (Pin3), S. cerevisiae, full-length, from pGEX4T-1; also called full-length Lsb2; Pin3; source: E. coli BL21, purified (glutathione Sepharose, thrombin cleavage, size exclusion chromatography)

T1 sequence (Q12446 whole entry): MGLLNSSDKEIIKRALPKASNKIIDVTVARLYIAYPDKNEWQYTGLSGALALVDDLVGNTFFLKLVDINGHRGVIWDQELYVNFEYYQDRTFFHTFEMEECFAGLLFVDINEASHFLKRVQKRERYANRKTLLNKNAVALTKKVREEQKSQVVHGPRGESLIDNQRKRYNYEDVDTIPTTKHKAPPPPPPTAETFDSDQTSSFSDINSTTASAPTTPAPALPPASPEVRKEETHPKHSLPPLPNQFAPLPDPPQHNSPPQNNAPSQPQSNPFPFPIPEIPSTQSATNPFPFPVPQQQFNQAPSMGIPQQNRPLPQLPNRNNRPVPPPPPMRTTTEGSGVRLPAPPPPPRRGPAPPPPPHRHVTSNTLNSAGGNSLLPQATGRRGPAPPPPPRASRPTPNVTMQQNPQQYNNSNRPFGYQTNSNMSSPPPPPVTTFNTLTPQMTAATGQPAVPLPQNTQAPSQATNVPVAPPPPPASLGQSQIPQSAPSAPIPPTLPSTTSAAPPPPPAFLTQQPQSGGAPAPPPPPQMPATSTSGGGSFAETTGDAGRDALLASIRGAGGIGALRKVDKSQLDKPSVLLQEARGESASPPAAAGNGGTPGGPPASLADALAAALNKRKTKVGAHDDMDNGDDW

The test addresses T1, Las17 (purified recombinant) (S. cerevisiae, UniProt Q12446 1-633).
T1 construct: Las17, the WASP homolog of S. cerevisiae; also called WASP homolog; source: recombinant, purified, produced as reported [25], [45], [46]
The test is described as follows: SPR; Las17 coupled via an amino group to a CM5 chip, Biacore3000, 25°C, HBS-EP buffer, Lsb1, Lsb2 or their SH3 domains at 25 nM to 10 µM. To be noted: both partners purified. For orientation: Surface plasmon resonance follows binding to a sensor surface in real time, without labels.
On to B1, for which the Kd is 792 nM. Consider B2, for which the Kd turned out to be 730 nM. Turning to B3, the Kd turned out to be 30 nM. For the molecule B4, the Kd is 79 nM.
